Source: US20220251562, “Anti-CD3 Aptamers for Use in Cell Targeting and Labeling” (Ixaka France, published 2022)

Experiments:
IgG1 Fc (counter target) [1] = molecular target: T1, IgG1 Fc (counter target) (Homo sapiens, UniProt P01857-1 P01857-1:100-330); test: SPR; no interaction observed; details: tags: AcroBiosystems; chain copies: 2; label: 5'-biotin-TEG
Procedure: (§1) Binding affinity measurements were performed using a BIAcore T200 instrument (GE Healthcare). To analyze interactions between aptamers and CD3 proteins, 1000 Resonance Units of biotinylated aptamers were immobilized on Series S Sensor chips SA (GE Healthcare) according to manufacturer's instructions (GE Healthcare). SELEX buffer was used as the running buffer. The interactions were measured in the “Single Kinetics Cycle” mode at a flow rate of 30 μl/min and by injecting different concentrations of human CD3 ε/γ, CD3 ε/δ, IgG1 Fc and mouse CD3 ε/δ (Sino Biological). The highest protein concentration used was 100 nM. Other concentrations were obtained by 3-fold dilution. All kinetic data of the interaction were evaluated using the BIAcore T200 evaluation software. Table 3 below provides a summary of KD values obtained from surface plasmon resonance measurements.

[2] = molecular target: T2, CD3 epsilon/delta heterodimer (Homo sapiens, UniProt P07766;P04234 P07766:23-126,P04234:22-105); test: SPR; steady state; kinetic 3.4 nM (Table 6); details: tags: C-terminal human IgG1 Fc fusion, AcroBiosystems; chain copies: heterodimer 1:1 (inferred); label: 5'-biotin-TEG
T2 sequence (P07766 23-126, stated change not applied, chain 1 of 2): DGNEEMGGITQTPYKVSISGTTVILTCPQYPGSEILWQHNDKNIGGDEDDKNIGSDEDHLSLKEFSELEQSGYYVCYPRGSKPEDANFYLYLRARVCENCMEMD
T2 sequence (P04234 22-105, stated change not applied, chain 2 of 2): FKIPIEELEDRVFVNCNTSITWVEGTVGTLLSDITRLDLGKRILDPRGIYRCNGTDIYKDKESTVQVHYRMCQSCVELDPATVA
Procedure: as §1

[3] = molecular target: T3, CD3 epsilon/gamma heterodimer (Homo sapiens, UniProt P07766;P09693 P07766:23-126,P09693:23-116); test: SPR; steady state; kinetic 4.1 nM (Table 6); details: tags: C-terminal human IgG1 Fc fusion, AcroBiosystems; chain copies: heterodimer 1:1 (inferred); label: 5'-biotin-TEG
T3 sequence (P07766 23-126, chain 1 of 2): as the sequence (P07766 23-126, stated change not applied, chain 1 of 2) above
T3 sequence (P09693 23-116, chain 2 of 2): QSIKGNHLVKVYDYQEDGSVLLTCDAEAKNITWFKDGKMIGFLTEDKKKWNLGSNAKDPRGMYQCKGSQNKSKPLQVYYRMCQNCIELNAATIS
Procedure: as §1

[4] = molecular target: T3, CD3 epsilon/gamma heterodimer; test: SPR; same value in Table 3; details: tags: C-terminal human IgG1 Fc fusion, AcroBiosystems; chain copies: heterodimer 1:1 (inferred); label: 5'-biotin-TEG
Procedure: as §1
(§2) Further, it was observed that compared to the aptamer CELTIC_1 (CD3-1 in Table 1), CELTIC_1s (CD3-1s) bound to the CD3 proteins more strongly. Table 4 below provides a summary of KD values obtained from another set of surface plasmon resonance measurements. It includes KD values of the first five aptamers with and without flanking regions.

[5] = molecular target: T2, CD3 epsilon/delta heterodimer; test: SPR; same value in Table 3; details: tags: C-terminal human IgG1 Fc fusion, AcroBiosystems; chain copies: heterodimer 1:1 (inferred); label: 5'-biotin-TEG
Procedure: as §1, §2

[6] = molecular target: T2, CD3 epsilon/delta heterodimer; test: SPR; steady state; kinetic 23.3 nM (Table 6); details: tags: C-terminal human IgG1 Fc fusion, AcroBiosystems; chain copies: heterodimer 1:1 (inferred); label: 5'-biotin-TEG
Procedure: as §1

[7] = molecular target: T3, CD3 epsilon/gamma heterodimer; test: SPR; steady state; kinetic fit suboptimal; details: tags: C-terminal human IgG1 Fc fusion, AcroBiosystems; chain copies: heterodimer 1:1 (inferred); label: 5'-biotin-TEG
Procedure: as §1

[8] = molecular target: T3, CD3 epsilon/gamma heterodimer; test: SPR; steady state; kinetic 0.2 pM (Table 8); details: tags: C-terminal human IgG1 Fc fusion, AcroBiosystems; chain copies: heterodimer 1:1 (inferred); label: biotin; G4 predicted
Procedure: (§3) Binding affinity measurements with the most interesting anti-CD3 aptamers derived from the core sequence were performed using a BIAcore T200 instrument (GE Healthcare) as already described in Example 4. To analyze interactions between aptamers and CD3 proteins, biotinylated aptamers were immobilized at a lower density than in Example 4 (100-500 RU) on Series S Sensor chips SA (GE Healthcare) according to manufacturer's instructions (GE Healthcare). Mouse and Cynomolgus CD3 ε/δ were purchased from AcroBiosystems. For human proteins, the highest concentration used was 100 nM and 1 μM for mouse and cynomolgus antigens. Other concentrations were obtained by 3-fold dilutions.
(§4) Table 9 below provides a summary of KD values obtained from surface plasmon resonance measurements performed with human CD3 ε/γ and mouse and cynomolgus CD3 ε/δ. […] In these conditions, 3′-3′ deoxy-thymidine-modified versions of the latest four aptamers performed equally well. All these sequenced-optimized aptamers were able to bind the murine and cynomolgus CD3 ε/δ isoforms confirming the cross-specificity of the CD3 aptamers already observed in Examples 3 and 5.

[9] = molecular target: T2, CD3 epsilon/delta heterodimer; test: SPR; kinetic; details: tags: C-terminal human IgG1 Fc fusion, AcroBiosystems; chain copies: heterodimer 1:1 (inferred); label: biotin; G4 predicted
Procedure: as §3
(§5) Table 8 below provides a summary of KD values obtained from surface plasmon resonance measurements. […] Variants of the core sequence identified in cell binding assays (CELTIC_core_12, CELTIC_core_24, CELTIC_core_29, CELTIC_core_40 and CELTIC_core_42) were all confirmed to have better affinities than the unmodified aptamer with human CD3 ε/γ. As already observed in Example 4, the affinities were in general slightly lower with CD3 ε/δ which is a consequence of the SELEX strategy that included more rounds on the CD3 ε/γ isoform. None of these sequences did bind to the Fc region of human IgG1.

IgG1 Fc (counter target) [10] = molecular target: T1, IgG1 Fc (counter target); test: SPR; NA; details: tags: AcroBiosystems; chain copies: 2; label: biotin; G4 predicted
Procedure: as §3, §5

[11] = molecular target: T2, CD3 epsilon/delta heterodimer; test: SPR; steady state; kinetic 8.2 nM (Table 6), 900 pM (Table 8); details: tags: C-terminal human IgG1 Fc fusion, AcroBiosystems; chain copies: heterodimer 1:1 (inferred); label: 5'-biotin-TEG
Procedure: as §1

[12] = molecular target: T3, CD3 epsilon/gamma heterodimer; test: SPR; steady state; kinetic 9.5 pM (Table 6), 304 pM (Table 8); 99 nM steady state (Table 9); details: tags: C-terminal human IgG1 Fc fusion, AcroBiosystems; chain copies: heterodimer 1:1 (inferred); label: 5'-biotin-TEG
[13] = molecular target: T2, CD3 epsilon/delta heterodimer; test: SPR; steady state; 62.2 nM (Table 3); kinetic 3.4 nM (Table 6); details: tags: C-terminal human IgG1 Fc fusion, AcroBiosystems; chain copies: heterodimer 1:1 (inferred); label: 5'-biotin-TEG
Procedure: as §1

[14] = molecular target: T3, CD3 epsilon/gamma heterodimer; test: SPR; steady state; 43.6 nM (Table 3); kinetic 2.8 nM (Table 6); details: tags: C-terminal human IgG1 Fc fusion, AcroBiosystems; chain copies: heterodimer 1:1 (inferred); label: 5'-biotin-TEG
Procedure: as §1

[15] = molecular target: T3, CD3 epsilon/gamma heterodimer; test: SPR; steady state; kinetic 3.8 nM (Table 6); details: tags: C-terminal human IgG1 Fc fusion, AcroBiosystems; chain copies: heterodimer 1:1 (inferred); label: 5'-biotin-TEG
Procedure: as §1

[16] = molecular target: T2, CD3 epsilon/delta heterodimer; test: SPR; steady state; kinetic 3.7 nM (Table 6); details: tags: C-terminal human IgG1 Fc fusion, AcroBiosystems; chain copies: heterodimer 1:1 (inferred); label: 5'-biotin-TEG
Procedure: as §1

[17] = molecular target: T3, CD3 epsilon/gamma heterodimer; test: SPR; steady state; kinetic 3.9 nM (Table 6); details: tags: C-terminal human IgG1 Fc fusion, AcroBiosystems; chain copies: heterodimer 1:1 (inferred); label: 5'-biotin-TEG
Procedure: as §1

[18] = molecular target: T2, CD3 epsilon/delta heterodimer; test: SPR; steady state; kinetic 3.2 nM (Table 6); details: tags: C-terminal human IgG1 Fc fusion, AcroBiosystems; chain copies: heterodimer 1:1 (inferred); label: 5'-biotin-TEG
Procedure: as §1

[19] = molecular target: T3, CD3 epsilon/gamma heterodimer; test: SPR; NA; details: tags: C-terminal human IgG1 Fc fusion, AcroBiosystems; chain copies: heterodimer 1:1 (inferred); label: 5'-biotin-TEG
Procedure: as §1, §2

[20] = molecular target: T2, CD3 epsilon/delta heterodimer; test: SPR; NA; details: tags: C-terminal human IgG1 Fc fusion, AcroBiosystems; chain copies: heterodimer 1:1 (inferred); label: 5'-biotin-TEG
Procedure: as §1, §2

IgG1 Fc (counter target) [21] = molecular target: T1, IgG1 Fc (counter target); test: SPR; no interaction observed; aptamer also NA for CD3; details: tags: AcroBiosystems; chain copies: 2; label: 5'-biotin-TEG
Procedure: as §1, §2

[22] = molecular target: T2, CD3 epsilon/delta heterodimer; test: SPR; steady state; kinetic fit suboptimal; details: tags: C-terminal human IgG1 Fc fusion, AcroBiosystems; chain copies: heterodimer 1:1 (inferred); label: 5'-biotin-TEG
Procedure: as §1

[23] = molecular target: T2, CD3 epsilon/delta heterodimer; test: SPR; steady state; kinetic 41.1 nM (Table 6); details: tags: C-terminal human IgG1 Fc fusion, AcroBiosystems; chain copies: heterodimer 1:1 (inferred); label: 5'-biotin-TEG
Procedure: as §1

[24] = molecular target: T3, CD3 epsilon/gamma heterodimer; test: SPR; steady state; kinetic 104 pM (Table 8); details: tags: C-terminal human IgG1 Fc fusion, AcroBiosystems; chain copies: heterodimer 1:1 (inferred); label: biotin; G4 predicted
Procedure: as §3, §4

[25] = molecular target: T3, CD3 epsilon/gamma heterodimer; test: SPR; steady state; kinetic 2.3 nM (Table 6); details: tags: C-terminal human IgG1 Fc fusion, AcroBiosystems; chain copies: heterodimer 1:1 (inferred); label: 5'-biotin-TEG
Procedure: as §1

[26] = molecular target: T2, CD3 epsilon/delta heterodimer; test: SPR; steady state; kinetic 2.7 nM (Table 6); details: tags: C-terminal human IgG1 Fc fusion, AcroBiosystems; chain copies: heterodimer 1:1 (inferred); label: 5'-biotin-TEG
Procedure: as §1

Binder: GGAGTGGAGTATTCCGGGTTTGGCATCGGGCCTGGCGAAG (ssDNA) [CELTIC_4s]
- binding result (IgG1 Fc (counter target) [1]): no binding
- Kd [2]: 144 nM
- Kd [3]: 117 nM

B1: CELTIC_3 (ssDNA)
DNA: TAGGGAAGAGAAGGACATATGATGCGTAAGGGTTTGGCAGCGGGCCTGGCGGAACGCGTGTATTTGACTAGTACATGACCACTTGA
- Kd [4]: 65.4 nM
- Kd [5]: 86.5 nM

Binder: GGTCGGGTGCTACTGAGCGATTGGCTTTCCGGACTGGGGA (ssDNA) [CELTIC_21s]
- binding result (IgG1 Fc (counter target) [1]): no binding
- Kd [6]: 405 nM
- Kd [7]: 155 nM

Binder: GGGTTTGGCATCGGGTCTGGC (ssDNA, 5'-HEG) [CELTIC_core_40]
- Kd [8]: 129 nM
- Kd [9]: 0.0052 nM
- binding result (IgG1 Fc (counter target) [10]): no binding

Binder: TACCGCGGGGATTGGCTCCGGGCCTGGCGTCGTAATCTGA (ssDNA) [CELTIC_19s]
- Kd [11]: 150 nM
- Kd [12]: 104 nM
- binding result (IgG1 Fc (counter target) [1]): no binding

B2: CELTIC_21 (ssDNA)
DNA: TAGGGAAGAGAAGGACATATGATGGTCGGGTGCTACTGAGCGATTGGCTTTCCGGACTGGGGATTGACTAGTACATGACCACTTGA
- Kd [13]: 49.8 nM
- Kd [14]: 56.4 nM

Binder: GCATCGAAATGGGGTTGGCACCGGGCCTGGCGAATTGGAT (ssDNA) [CELTIC_9s]
- Kd [15]: 47.3 nM
- binding result (IgG1 Fc (counter target) [1]): no binding
- Kd [16]: 60.5 nM

Binder: GATGGAGGGTTTGGCGGTGGGCCTGGCAAGTTATCTCATA (ssDNA) [CELTIC_11s]
- binding result (IgG1 Fc (counter target) [1]): no binding
- Kd [17]: 94 nM
- Kd [18]: 138 nM

B3: CELTIC_1 (ssDNA)
DNA: TAGGGAAGAGAAGGACATATGATCCGGGTGGGGGTTTGGCACCGGGCCTGGCGCAGGGATTCGTTGACTAGTACATGACCACTTGA
- binding result [19]: no binding
- binding result [20]: no binding
- binding result (IgG1 Fc (counter target) [21]): no binding

B4: CELTIC_2 (ssDNA)
DNA: TAGGGAAGAGAAGGACATATGATGAGGGGTTTGGCATCGGGCCTGGCGCCATTCAAGCTATGCTTGACTAGTACATGACCACTTGA
- binding result [19]: no binding
- binding result [20]: no binding
- binding result (IgG1 Fc (counter target) [21]): no binding

Binder: CGGCAGGGGTTTGGCTCCGGGTCTGGCGAACTGGCTGAGA (ssDNA) [CELTIC_5s]
- binding result (IgG1 Fc (counter target) [1]): no binding
- Kd [7]: 182 nM
- Kd [22]: 120 nM

Binder: GCGTAAGGGTTTGGCAGCGGGCCTGGCGGAACGCGTGTAT (ssDNA) [CELTIC_3s]
- binding result (IgG1 Fc (counter target) [1]): no binding
- Kd [23]: 409 nM
- Kd [7]: 156 nM

Binder: GGGTTTGGCATCGGGTCTGGC (ssDNA, 5'-HEG; 3'-3' dT) [CELTIC_core_40t]
- Kd [9]: 0.01 nM
- Kd [24]: 156 nM

Binder: CGACCACAGGGGTTTGGCTTCGGGACTGGCGGTGGGCACT (ssDNA) [CELTIC_22s (printed CELTIC_CD3_22)]
- Kd [25]: 162 nM
- Kd [26]: 164 nM

Binder: AAGGGATTGGCGTCGGGCCTGGCGTAAGGAGGCTATGCTC (ssDNA) [CELTIC_6s]
- binding result (IgG1 Fc (counter target) [1]): no binding
- Kd [7]: 287 nM
- Kd [22]: 168 nM
